The source of these data is patent US20200325476 (published 2020).

Series [1] concerns the target T1, alpha-synuclein (monomer) (UniProt P37840 P37840:1-140). In words: MST; 1x PBS, 0.05% Tween-20, 25 C; 50 nM aptamer.
For series [2], the target named is T1, alpha-synuclein (monomer). Nature of the series: footprint; DNase I; positive control; apparent Kd estimated from three bands but value not given in text; DPBS, 37 C.
Series [3] addresses T1, alpha-synuclein (monomer). In words: footprint; DNase I; apparent Kd estimated from three bands but value not given in text; DPBS, 37 C.

B1: a-syn-2 (1LBiGJFJC) (ssDNA)
DNA: ATAGTCCCATCATTCATTGTATGGTACGGCGCGGTGGCGGGTGCGGGGAGATATTAGCAAGTGTCA
With B1, the Kd (commonly the equilibrium constant for the complex coming apart) in series [1] was found to be 286 nM.

B2: M5-15 (ssDNA)
DNA: ATAGTCCCATCATTCATTGTATGGTACGGCGCGGTGGCGGGTGCGTGGAGATATTAGCAAGTGTCA
As to B2, the binding result in series [2] is reported as “binds”.

B3: a-syn-1 (1LBwAAjJ) (ssDNA)
DNA: ATAGTCCCATCATTCATTGTAAGGAAACGCTACGGGGTGGGTACGGCAAGATATTAGCAAGTGTCA
Turning to B3, the binding result in series [3] is reported as “binds”.

B4: a-syn-3 (GdJUhe) (ssDNA)
DNA: ATAGTCCCATCATTCATTGTATGAGATGGGGTGGTGACGTCAGCATGGAGATATTAGCAAGTGTCA
In series [1], B4 yielded a Kd of 94.2 nM.
